From US20110027909A1, “Chimera Compositions and Methods of Use” (priority 2009, published 2011)

How the values were obtained:
[1] = target: T1, CRF-BP(FL)_CRFR2 chimera (Homo sapiens, UniProt P24387+Q13324); assay: FLIPR intracellular calcium release, agonist mode, HEK 293 cells expressing full-length CRF-BP_CRFR2 chimera; format: cell-based
T1 construct: DNA encoding the CRFR2 protein was amplified using the ssHA CRFR2_Zeo plasmid DNA template; FLAG (N); expressed in transfected cells
T1 sequence (P24387+Q13324 with tags, fused parts or gaps): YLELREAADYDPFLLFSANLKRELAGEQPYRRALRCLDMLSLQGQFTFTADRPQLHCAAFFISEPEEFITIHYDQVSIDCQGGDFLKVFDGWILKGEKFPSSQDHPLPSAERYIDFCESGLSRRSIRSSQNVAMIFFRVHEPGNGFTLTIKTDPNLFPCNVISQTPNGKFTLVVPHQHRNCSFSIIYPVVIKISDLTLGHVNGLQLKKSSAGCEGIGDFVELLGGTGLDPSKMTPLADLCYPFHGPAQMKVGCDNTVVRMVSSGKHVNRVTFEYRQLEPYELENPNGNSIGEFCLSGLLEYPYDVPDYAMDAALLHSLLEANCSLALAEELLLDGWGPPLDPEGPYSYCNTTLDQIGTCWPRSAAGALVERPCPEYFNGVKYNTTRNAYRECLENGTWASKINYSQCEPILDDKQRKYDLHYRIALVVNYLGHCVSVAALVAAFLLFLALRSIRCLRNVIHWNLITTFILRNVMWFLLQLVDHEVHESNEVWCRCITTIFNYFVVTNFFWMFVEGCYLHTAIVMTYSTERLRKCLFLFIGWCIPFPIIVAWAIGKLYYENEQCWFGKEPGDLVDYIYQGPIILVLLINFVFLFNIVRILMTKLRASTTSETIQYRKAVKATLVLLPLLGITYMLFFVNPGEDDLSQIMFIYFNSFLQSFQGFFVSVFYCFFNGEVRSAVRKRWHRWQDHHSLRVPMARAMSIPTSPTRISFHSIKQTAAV
Experimental: (§1) The mammalian cells expressing the isolated chimera constructs were tested for the ability of the chimera proteins to activate intracellular calcium release via signaling through Gq. HEK 293 cells of Example 2 expressing the constructs of Example 1 were grown in 10% FBS in DMEM cell media with hygromycin (0.4%) selection reagent. Cells were plated out in 96-well plates (40 000 cells/well) in FBS/DMEM media. On the following day, cells were serum starved (1% FBS in DMEM; 100 μl/well) for 2 hours prior to testing.
(§2) Cells were loaded with diluted FLIPR™ dye (100 μl) for one hour prior to testing with CRF. The selected hygromycin resistant cells were plated in 96-well clear bottom black microplates at a density of approximately 40,000 cells/well, in DMEM/10% FBS media. […]
(§3) A FlexStation (Molecular Devices) fluorometric imaging plate reader was used to measure changes in intracellular Ca^2+. […] The machine was used in Flex mode, and the fluorescent intensity was measured from the bottom with the excitation at 485 nm and emission at 525 nm for 120 seconds at 21° C.
The results of the FLIPR experiments detecting the levels of intracellular calcium induced by activation of the chimera with CRF are shown in FIGS. 3-5. […] Results are expressed as the mean (±SEM) relative fluorescent units (RFU), calculated as agonist-induced maximum Ca^2+ peak/cell number×1000.

[2] = target: T2, CRF-BP(10 Kd)_CRFR2 chimera (Homo sapiens, UniProt P24387+Q13324); assay: FLIPR intracellular calcium release, HEK 293 cells expressing CRF-BP(10 Kd)_CRFR2 chimera; format: cell-based
T2 construct: The CRF-BP (10 Kd) fragment is comprised of 88 amino acid residues (A235 to L322); DNA encoding the CRFR2 protein was amplified using the ssHA CRFR2_Zeo plasmid DNA template; FLAG (N); expressed in transfected cells
T2 sequence (P24387+Q13324 with tags, fused parts or gaps): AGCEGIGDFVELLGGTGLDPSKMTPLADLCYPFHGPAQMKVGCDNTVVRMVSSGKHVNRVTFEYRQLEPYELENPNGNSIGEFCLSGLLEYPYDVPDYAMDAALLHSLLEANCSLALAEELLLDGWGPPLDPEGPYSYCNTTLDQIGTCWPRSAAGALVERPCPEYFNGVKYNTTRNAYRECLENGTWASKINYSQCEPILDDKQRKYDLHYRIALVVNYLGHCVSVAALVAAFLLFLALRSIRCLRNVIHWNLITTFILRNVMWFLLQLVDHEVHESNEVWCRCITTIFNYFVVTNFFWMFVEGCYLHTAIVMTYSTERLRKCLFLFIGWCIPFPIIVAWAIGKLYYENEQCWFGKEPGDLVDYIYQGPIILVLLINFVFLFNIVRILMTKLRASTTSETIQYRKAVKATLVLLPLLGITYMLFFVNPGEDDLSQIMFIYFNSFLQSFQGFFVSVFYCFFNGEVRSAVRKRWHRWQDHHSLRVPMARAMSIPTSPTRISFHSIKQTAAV
Experimental: as §1, §2, §3
Results are expressed as the mean (±SEM) relative fluorescent units (RFUs), calculated as agonist-induced maximum Ca^2+ peak/cell number×1000.

[3] = test system: untransfected HEK 293 cells; assay: Negative control calcium release, HEK 293 cells not transfected; format: cell-based, human; settings: FIG. 7
Experimental: (§4) As a negative control, the effect of CRF on HEK 293 cells that had not been transfected or which expressed a recombinant dopamine receptor was measured.

[4] = test system: recombinant dopamine receptor; assay: Negative control calcium release, HEK 293 cells expressing a recombinant dopamine receptor; format: cell-based; settings: HEK 293 cells expressing recombinant dopamine receptor; FIG. 7
Experimental: as §4

[5] = target: T3, CRF-BP_NK1R chimera (Homo sapiens, UniProt P24387+P25103); assay: FLIPR intracellular calcium release, HEK-293 cells expressing CRF-BP_NK1R chimera; format: cell-based; settings: 1 pM-10 μM, FIGS. 9, 10
T3 construct: the construct used to create a CRF-BP(FL)_NK1R chimera; FLAG (N); expressed in transfected cells
Experimental: The mammalian cells expressing the various isolated chimera constructs were tested for the ability of the chimera proteins to activate intracellular calcium release. The HEK-293 cells of Example 5 expressing the constructs of Example 4 were grown in 10% FBS in DMEM cell media with hygromycin (0.4%) as a selection reagent. Cells were plated out in 96-well plates (40 000 cells/well) in FBS/DMEM media. On the following day, cells were serum starved (1% FBS in DMEM; 100 μl/well) for 2 hours prior to testing.

[6] = test system: IGF-BP2_CRFR chimera; assay: FLIPR intracellular calcium release, HEK-293 cells expressing IGF-BP2_CRFR2 chimera; format: cell-based, human; settings: CRF 1 pM-10 μM, FIG. 13
Experimental: The mammalian cells expressing the various isolated chimera constructs were tested for the ability of the chimera proteins to activate intracellular calcium release. The HEK-293 cells expressing the constructs of Example 9 were grown in 10% FBS in DMEM cell media with hygromycin (0.4%) selection reagent. The cells were plated out in 96-well plates (40 000 cells/well) in FBS/DMEM media. On the following day, cells were serum starved (1% FBS in DMEM; 100 μl/well) for 2 hours prior to testing.
The cells were loaded with diluted FLIPR™ dye (100 μl) for one hour prior to testing with CRF. The selected hygromycin resistant cells were plated in 96-well clear bottom black microplates at a density of approximately 40,000 cells/well, in DMEM/10% FBS media. […]
as §3
The results of the FLIPR experiments detecting the levels of intracellular calcium induced by activation of the chimeras with CRF are shown in FIG. 13. […] Results are expressed as the mean (±SEM) relative fluorescence units (RFU), calculated as agonist-induced maximum Ca^2+ peak/cell number×1000.

[7] = CRF, intracellular calcium release

T3 sequence (P24387+P25103 fused, change not shown): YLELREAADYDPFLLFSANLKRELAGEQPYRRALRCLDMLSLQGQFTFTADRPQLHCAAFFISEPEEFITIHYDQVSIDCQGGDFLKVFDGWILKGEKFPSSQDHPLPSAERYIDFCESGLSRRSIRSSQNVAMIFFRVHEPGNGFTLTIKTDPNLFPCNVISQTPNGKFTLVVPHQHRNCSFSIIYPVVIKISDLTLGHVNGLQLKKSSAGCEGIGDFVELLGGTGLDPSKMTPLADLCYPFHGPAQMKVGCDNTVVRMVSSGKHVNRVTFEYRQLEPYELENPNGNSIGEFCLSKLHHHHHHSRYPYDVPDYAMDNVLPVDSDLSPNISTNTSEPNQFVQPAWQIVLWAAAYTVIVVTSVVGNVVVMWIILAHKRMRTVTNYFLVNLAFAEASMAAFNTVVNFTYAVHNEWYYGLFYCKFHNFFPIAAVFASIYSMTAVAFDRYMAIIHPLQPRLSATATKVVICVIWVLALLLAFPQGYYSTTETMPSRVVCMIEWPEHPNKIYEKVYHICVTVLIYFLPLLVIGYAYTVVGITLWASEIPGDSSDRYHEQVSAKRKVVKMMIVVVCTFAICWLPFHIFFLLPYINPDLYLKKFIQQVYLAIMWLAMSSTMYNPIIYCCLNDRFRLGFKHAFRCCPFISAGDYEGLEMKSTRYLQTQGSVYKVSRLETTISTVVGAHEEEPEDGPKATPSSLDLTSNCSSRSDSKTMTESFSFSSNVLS

Question: Which results are given for Corticotropin Releasing Factor [CRF]?
Answer: intracellular calcium release (agonist-induced maximum Ca2+ peak, RFU) ([1]; 1 pM-10 μM, HEK 293 cells, FIGS. 3-5): increased as the concentration of CRF was increased; signaling through the chimera compared with CRFR2 alone [1, 7]: more effectively than CRF at CRFR2 alone; intracellular calcium release (RFU) ([2]; CRF 1 pM-10 μM, compared with full-length chimera, FIG. 6): even more robust signaling than the full-length CRF-BP_CRFR2 chimera; signaling through the chimera compared with CRFR2 alone [2, 7]: more effectively than CRF at CRFR2 alone; intracellular calcium signaling [3]: did not display any significant signaling; intracellular calcium signaling [4]: did not display any significant signaling; intracellular calcium release (RFU) [5]: different levels of CRF-induced (1 pM-10 μM) intracellular calcium release in the HEK-293 cells corresponding to the concentration of CRF; intracellular calcium release (RFU) [6]: different levels of CRF-induced (1 pM-10 μM) intracellular calcium release in the HEK-293 cells corresponding to the concentration of CRF
